{"source": "patent US20050202010A1", "about": "“Method of treatment and bioassay involving macrophage migration inhibitory factor (MIF) as cardiac-derived myocardial depressant factor” (priority 2003, published 2005)", "system": "CD74 KO mouse hearts", "assay": "Langendorff, rhMIF added to perfusate, CD74 KO mouse hearts", "design": "LVP / +dP/dt / −dP/dt / TPP / CVR: unit not given beside the values", "key": {"[1]": {"details": "CD74 K/O + rhMIF, single hearts by date and mean (x), n 3"}, "[2]": {"details": "CD74 K/O + rhMIF, single hearts by date and mean (x), n 3, mean"}, "[3]": {"details": "CD74 KO + rhMIF in perfusate, n = 3"}}, "note": "Values joined by “and” are separate entries in the source; they are usually repeats but may differ in a detail not shown here. Equal values may be shown once."}
{"molecule": "rMIF: recombinant human macrophage migration inhibitory factor added to the heart perfusate at 20 ng/ml (protein, UniProt P14174 2-115, looked up) Macrophage migration …: PMFIVNTNVPRASVPDGFLSELTQQLAQATGKPPQYIAVHVVPDQLMAFGGSSEPCALCSLHSIGKIGGAQNRSYSKLLCGLLAERLRISPDRVYINYYDMNAANVGWNNSTFA", "values": [{"measurement": "+dP/dt", "setting": "[1]", "result": "1800 and 1600 and 2200"}, {"measurement": "CVR", "setting": "[1]", "result": "45 and 53 and 71"}, {"measurement": "DR", "setting": "[1]", "result": "1.286 and 1.455 and 1.222"}, {"measurement": "HR", "setting": "[1]", "result": "320 and 325"}, {"measurement": "LVP", "setting": "[1]", "result": "64 and 50 and 88"}, {"measurement": "Max + d", "setting": "[1]", "result": "45 and 50 and 40"}, {"measurement": "Max − d", "setting": "[1]", "result": "53 and 52"}, {"measurement": "RT90", "setting": "[1]", "result": "80 and 72"}, {"measurement": "TPP", "setting": "[1]", "result": "70 and 75 and 63"}, {"measurement": "dP40", "setting": "[1]", "result": 1900}, {"measurement": "−dP/dt", "setting": "[1]", "result": "1400 and 1100 and 1800"}, {"measurement": "+dP/dt", "setting": "[2]", "result": 1866.667}, {"measurement": "CVR", "setting": "[2]", "result": 56.33}, {"measurement": "DR", "setting": "[2]", "result": 1.321}, {"measurement": "HR", "setting": "[2]", "result": 321.6667}, {"measurement": "LVP", "setting": "[2]", "result": 67.33}, {"measurement": "Max − d", "setting": "[2]", "result": 52.67}, {"measurement": "RT90", "setting": "[2]", "result": 77.33}, {"measurement": "TPP", "setting": "[2]", "result": 69.33}, {"measurement": "dP40", "setting": "[2]", "result": 1666.667}, {"measurement": "−dP/dt", "setting": "[2]", "result": 1433.333}, {"measurement": "+dP/dt max", "setting": "[3]", "result": "1867 ± 176", "unit": "mmHg/sec"}, {"measurement": "Coronay Perfusion Pressue", "setting": "[3]", "result": "86.0 ± 23.6", "unit": "mmHg"}, {"measurement": "Coronay Vascular Resistance", "setting": "[3]", "result": "56.3 ± 7.7", "unit": "mmHg"}, {"measurement": "Heart Rate", "setting": "[3]", "result": "322 ± 2", "unit": "bpm"}, {"measurement": "Left Ventricular Pressure", "setting": "[3]", "result": "67.3 ± 14.4", "unit": "mmHg"}, {"measurement": "Time to 90% Relaxation", "setting": "[3]", "result": "77.3 ± 2.7", "unit": "ms"}, {"measurement": "Time to Max +dP/dt", "setting": "[3]", "result": "45.0 ± 2.9", "unit": "ms"}, {"measurement": "Time to Max −dP/dt", "setting": "[3]", "result": "52.7 ± 0.3", "unit": "ms"}, {"measurement": "Time to Peak Pressue", "setting": "[3]", "result": "69.3 ± 3.5", "unit": "ms"}, {"measurement": "dP40", "setting": "[3]", "result": "1662 ± 120", "unit": "mmHg/sec"}, {"measurement": "−dP/dt max", "setting": "[3]", "result": "1433 ± 202", "unit": "mmHg/sec"}]}
